Source: PMC8615523
One block for each substance: values may come before it.

Legend:
Test in all cases: SEC; Ni-NTA eluates injected into a HiLoad 16/60 Superdex 200 pg column; elution with 30 mM Tris-HCl pH 7.4; absorbance at 280 nm
[1] = target: cpmMaroon185-186
[2] = target: cpmCarmine185-186
[3] = target: cpmMaroon196-186

stoichiometry N [1]: 2
Substance: cpmMaroon185-186

percent monomeric [2]: 60%
Substance: cpmCarmine185-186

percent monomeric [3]: 70%
Substance: cpmMaroon196-186
